Results from the supplement of paper PMC9112550, “Optimization of the antimicrobial peptide Bac7 by deep mutational scanning” (BMC Biology, 2022).

Tested on: Escherichia coli TOP10
Assay: shrunken log2 fold change of peptide-encoding DNA abundance (4.5 h post-induction vs induction); higher = less antimicrobial activity (less host growth inhibition)
Conditions: time post-induction: 4.5 h; library: site-saturation at positions 5, 18, 19, 20
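Note: peptides expressed intracellularly from a pBAD plasmid library in pooled LB shake-flask culture, induced with 0.3% L-arabinose, DNA abundance read by NGS, three biological replicates, DESeq2 with apeglm shrinkage.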

Sequence: RRIRHRPPRLPRPRPRPMQRPRP
- shrunken log2 fold change: 0.138

Sequence: RRIRLRPPRLPRPRPRPLCPPRP
- shrunken log2 fold change: -0.0651

Sequence: RRIRMRPPRLPRPRPRPEHRPRP
- shrunken log2 fold change: 0.0887

Sequence: RRIRERPPRLPRPRPRPWFFPRP
- shrunken log2 fold change: -0.358

Sequence: RRIRARPPRLPRPRPRPVMVPRP
- shrunken log2 fold change: 0.0116

Sequence: RRIRVRPPRLPRPRPRPFLAPRP
- shrunken log2 fold change: -0.219

Sequence: RRIRNRPPRLPRPRPRPILKPRP
- shrunken log2 fold change: 0.0926

Sequence: RRIRKRPPRLPRPRPRPNNCPRP
- shrunken log2 fold change: -0.256

Sequence: RRIRARPPRLPRPRPRPDAFPRP
- shrunken log2 fold change: 0.879

Sequence: RRIRWRPPRLPRPRPRPQRKPRP
- shrunken log2 fold change: 0.46

Sequence: RRIRVRPPRLPRPRPRPQKWPRP
- shrunken log2 fold change: 0.202

Sequence: RRIRQRPPRLPRPRPRPEPEPRP
- shrunken log2 fold change: 0.813

Sequence: RRIRQRPPRLPRPRPRPSNWPRP
- shrunken log2 fold change: -0.227

Sequence: RRIRRRPPRLPRPRPRPAHEPRP
- shrunken log2 fold change: 0.598

Sequence: RRIRFRPPRLPRPRPRPCEGPRP
- shrunken log2 fold change: -0.086

Sequence: RRIRCRPPRLPRPRPRPRAFPRP
- shrunken log2 fold change: -0.0361

Sequence: RRIRQRPPRLPRPRPRPHHAPRP
- shrunken log2 fold change: -0.00332

Sequence: RRIRERPPRLPRPRPRPYYEPRP
- shrunken log2 fold change: -0.224

Sequence: RRIRARPPRLPRPRPRPHFHPRP
- shrunken log2 fold change: -0.197

Sequence: RRIRSRPPRLPRPRPRPNDLPRP
- shrunken log2 fold change: -0.23

Sequence: RRIRPRPPRLPRPRPRPVMHPRP
- shrunken log2 fold change: 0.15

Sequence: RRIRLRPPRLPRPRPRPSEYPRP
- shrunken log2 fold change: -0.675

Sequence: RRIRDRPPRLPRPRPRPNAYPRP
- shrunken log2 fold change: -0.043

Sequence: RRIRHRPPRLPRPRPRPCASPRP
- shrunken log2 fold change: -0.028

Sequence: RRIRARPPRLPRPRPRPLYFPRP
- shrunken log2 fold change: -0.282

Sequence: RRIRRRPPRLPRPRPRPTCAPRP
- shrunken log2 fold change: 0.502

Sequence: RRIRCRPPRLPRPRPRPGFGPRP
- shrunken log2 fold change: 0.399

Sequence: RRIRNRPPRLPRPRPRPDTVPRP
- shrunken log2 fold change: -0.0521

Sequence: RRIRARPPRLPRPRPRPAIYPRP
- shrunken log2 fold change: -0.0399

Sequence: RRIRFRPPRLPRPRPRPYLKPRP
- shrunken log2 fold change: -1.36

Sequence: RRIRRRPPRLPRPRPRPNGIPRP
- shrunken log2 fold change: -0.0555

Sequence: RRIRFRPPRLPRPRPRPAKSPRP
- shrunken log2 fold change: -0.135

Sequence: RRIRSRPPRLPRPRPRPEGKPRP
- shrunken log2 fold change: 0.0822

Sequence: RRIRWRPPRLPRPRPRPCLVPRP
- shrunken log2 fold change: 0.144

Sequence: RRIRVRPPRLPRPRPRPETLPRP
- shrunken log2 fold change: -0.223

Sequence: RRIRRRPPRLPRPRPRPFHVPRP
- shrunken log2 fold change: -0.00804

Sequence: RRIRVRPPRLPRPRPRPEWRPRP
- shrunken log2 fold change: 0.212

Sequence: RRIRIRPPRLPRPRPRPKQGPRP
- shrunken log2 fold change: 0.391

Sequence: RRIRTRPPRLPRPRPRPPNVPRP
- shrunken log2 fold change: -0.201

Sequence: RRIRLRPPRLPRPRPRPNDRPRP
- shrunken log2 fold change: -0.422

Sequence: RRIRFRPPRLPRPRPRPRIDPRP
- shrunken log2 fold change: -0.0186

Sequence: RRIRPRPPRLPRPRPRPWYHPRP
- shrunken log2 fold change: -0.516

Sequence: RRIRFRPPRLPRPRPRPFGHPRP
- shrunken log2 fold change: -0.19

Sequence: RRIRLRPPRLPRPRPRPLGAPRP
- shrunken log2 fold change: 0.387

Sequence: RRIRRRPPRLPRPRPRPIHHPRP
- shrunken log2 fold change: -0.207

Sequence: RRIRFRPPRLPRPRPRPKHWPRP
- shrunken log2 fold change: 0.0787

Sequence: RRIRVRPPRLPRPRPRPYMCPRP
- shrunken log2 fold change: -0.274

Sequence: RRIRERPPRLPRPRPRPTRCPRP
- shrunken log2 fold change: -0.0341

Sequence: RRIRTRPPRLPRPRPRPMMPPRP
- shrunken log2 fold change: -0.0027

Sequence: RRIRRRPPRLPRPRPRPLQGPRP
- shrunken log2 fold change: 0.0475

Sequence: RRIRRRPPRLPRPRPRPFMPPRP
- shrunken log2 fold change: -0.00307

Sequence: RRIRYRPPRLPRPRPRPYTMPRP
- shrunken log2 fold change: -0.301

Sequence: RRIRKRPPRLPRPRPRPLSKPRP
- shrunken log2 fold change: 0.213

Sequence: RRIRYRPPRLPRPRPRPGQAPRP
- shrunken log2 fold change: 0.0475

Sequence: RRIRKRPPRLPRPRPRPFWAPRP
- shrunken log2 fold change: 0.659

Sequence: RRIRFRPPRLPRPRPRPCSLPRP
- shrunken log2 fold change: -0.122

Sequence: RRIRRRPPRLPRPRPRPRRRPRP
- shrunken log2 fold change: 0.778

Sequence: RRIRNRPPRLPRPRPRPSKMPRP
- shrunken log2 fold change: -0.22

Sequence: RRIRTRPPRLPRPRPRPDHDPRP
- shrunken log2 fold change: 0.0257

Sequence: RRIRVRPPRLPRPRPRPDNPPRP
- shrunken log2 fold change: -0.101

Sequence: RRIRIRPPRLPRPRPRPHWQPRP
- shrunken log2 fold change: 1.4

Sequence: RRIRYRPPRLPRPRPRPVGMPRP
- shrunken log2 fold change: -0.083

Sequence: RRIRNRPPRLPRPRPRPKQEPRP
- shrunken log2 fold change: 0.0268

Sequence: RRIRKRPPRLPRPRPRPPVSPRP
- shrunken log2 fold change: 0.0866

Sequence: RRIRERPPRLPRPRPRPRIPPRP
- shrunken log2 fold change: -0.269

Sequence: RRIRYRPPRLPRPRPRPVKPPRP
- shrunken log2 fold change: 0.00519

Sequence: RRIRFRPPRLPRPRPRPCPDPRP
- shrunken log2 fold change: -0.45

Sequence: RRIRLRPPRLPRPRPRPMVFPRP
- shrunken log2 fold change: 0.0182

Sequence: RRIRNRPPRLPRPRPRPGPRPRP
- shrunken log2 fold change: 0.641

Sequence: RRIRIRPPRLPRPRPRPQEVPRP
- shrunken log2 fold change: 0.0526

Sequence: RRIRARPPRLPRPRPRPVYDPRP
- shrunken log2 fold change: 0.0386

Sequence: RRIRHRPPRLPRPRPRPYIKPRP
- shrunken log2 fold change: -0.287

Sequence: RRIRWRPPRLPRPRPRPSGPPRP
- shrunken log2 fold change: 0.114

Sequence: RRIRQRPPRLPRPRPRPHHSPRP
- shrunken log2 fold change: -0.107

Sequence: RRIRRRPPRLPRPRPRPRFLPRP
- shrunken log2 fold change: 0.15

Sequence: RRIRCRPPRLPRPRPRPSRNPRP
- shrunken log2 fold change: 0.155

Sequence: RRIRARPPRLPRPRPRPCVEPRP
- shrunken log2 fold change: 0.317

Sequence: RRIRIRPPRLPRPRPRPWPWPRP
- shrunken log2 fold change: 0.0338

Sequence: RRIRTRPPRLPRPRPRPFNPPRP
- shrunken log2 fold change: -1.37

Sequence: RRIRPRPPRLPRPRPRPMLLPRP
- shrunken log2 fold change: 0.0229

Sequence: RRIRCRPPRLPRPRPRPLFCPRP
- shrunken log2 fold change: -0.442

Sequence: RRIRMRPPRLPRPRPRPRAFPRP
- shrunken log2 fold change: 0.918

Sequence: RRIRRRPPRLPRPRPRPECWPRP
- shrunken log2 fold change: 0.958

Sequence: RRIRKRPPRLPRPRPRPGINPRP
- shrunken log2 fold change: 0.369

Sequence: RRIRLRPPRLPRPRPRPDQNPRP
- shrunken log2 fold change: -0.0565

Sequence: RRIRFRPPRLPRPRPRPVKIPRP
- shrunken log2 fold change: -0.0378

Sequence: RRIRWRPPRLPRPRPRPFRWPRP
- shrunken log2 fold change: 0.0815

Sequence: RRIRARPPRLPRPRPRPLHMPRP
- shrunken log2 fold change: 1.15

Sequence: RRIRWRPPRLPRPRPRPCHVPRP
- shrunken log2 fold change: -0.437

Sequence: RRIRSRPPRLPRPRPRPWETPRP
- shrunken log2 fold change: -0.0029

Sequence: RRIRGRPPRLPRPRPRPPVWPRP
- shrunken log2 fold change: 0.861

Sequence: RRIRMRPPRLPRPRPRPSWSPRP
- shrunken log2 fold change: 0.154

Sequence: RRIRERPPRLPRPRPRPHGEPRP
- shrunken log2 fold change: -0.0812

Sequence: RRIRDRPPRLPRPRPRPYWEPRP
- shrunken log2 fold change: -0.0419

Sequence: RRIRRRPPRLPRPRPRPCHMPRP
- shrunken log2 fold change: -0.237

Sequence: RRIRFRPPRLPRPRPRPYQVPRP
- shrunken log2 fold change: -0.153

Sequence: RRIRDRPPRLPRPRPRPDVNPRP
- shrunken log2 fold change: 0.209

Sequence: RRIRSRPPRLPRPRPRPTPTPRP
- shrunken log2 fold change: 0.676

Sequence: RRIRGRPPRLPRPRPRPNNPPRP
- shrunken log2 fold change: -0.171

Sequence: RRIRKRPPRLPRPRPRPRPVPRP
- shrunken log2 fold change: 0.732

Sequence: RRIRNRPPRLPRPRPRPGKMPRP
- shrunken log2 fold change: -0.203

Sequence: RRIRSRPPRLPRPRPRPHCIPRP
- shrunken log2 fold change: 0.021

Sequence: RRIRHRPPRLPRPRPRPMHNPRP
- shrunken log2 fold change: 0.708

Sequence: RRIRDRPPRLPRPRPRPELVPRP
- shrunken log2 fold change: 0.00724

Sequence: RRIRYRPPRLPRPRPRPKYCPRP
- shrunken log2 fold change: 0.0325

Sequence: RRIRDRPPRLPRPRPRPTINPRP
- shrunken log2 fold change: 0.135

Sequence: RRIRTRPPRLPRPRPRPETYPRP
- shrunken log2 fold change: -0.275

Sequence: RRIRVRPPRLPRPRPRPDLRPRP
- shrunken log2 fold change: -0.0613

Sequence: RRIRIRPPRLPRPRPRPKNGPRP
- shrunken log2 fold change: -0.202

Sequence: RRIRGRPPRLPRPRPRPDVWPRP
- shrunken log2 fold change: 1.36

Sequence: RRIRNRPPRLPRPRPRPISIPRP
- shrunken log2 fold change: 0.0125

Sequence: RRIRPRPPRLPRPRPRPGREPRP
- shrunken log2 fold change: 2.45

Sequence: RRIRRRPPRLPRPRPRPPAWPRP
- shrunken log2 fold change: 0.919

Sequence: RRIRARPPRLPRPRPRPYVVPRP
- shrunken log2 fold change: -0.623

Sequence: RRIRERPPRLPRPRPRPWMKPRP
- shrunken log2 fold change: -0.353

Sequence: RRIRYRPPRLPRPRPRPFFEPRP
- shrunken log2 fold change: -0.482

Sequence: RRIRVRPPRLPRPRPRPASKPRP
- shrunken log2 fold change: -0.0732

Sequence: RRIRQRPPRLPRPRPRPHIGPRP
- shrunken log2 fold change: -0.0345

Sequence: RRIRARPPRLPRPRPRPNPNPRP
- shrunken log2 fold change: 0.187

Sequence: RRIRLRPPRLPRPRPRPPIIPRP
- shrunken log2 fold change: -0.195

Sequence: RRIRPRPPRLPRPRPRPNTNPRP
- shrunken log2 fold change: -0.329

Sequence: RRIRLRPPRLPRPRPRPQYAPRP
- shrunken log2 fold change: -0.0369

Sequence: RRIRSRPPRLPRPRPRPQDHPRP
- shrunken log2 fold change: -0.794

Sequence: RRIRWRPPRLPRPRPRPCGYPRP
- shrunken log2 fold change: 0.14

Sequence: RRIRYRPPRLPRPRPRPNDSPRP
- shrunken log2 fold change: -0.349
